Test results as given in PMC10140047.

What was measured:
[1] = biological target: GST-RanBP2 BBD phosphorylated by CDK1/cyclin B (human) (UniProt P49792); assay: pull-down; GST-RanBP2 BBD on GSH agarose beads, untreated or pre-phosphorylated by CDK1/cyclin B1, incubated 90 min at RT with purified TwinStrep-BICD2 in Binding Buffer (50 mM Tris pH 7.4, 125 mM NaCl, 5 mM EDTA, 0.1% NP40); blot with anti-BICD2
PLK1 = PLK1 (UniProt P53350); assay: anti-GFP IP, PLK1 blot; details: reference: wild type, sites T319,S320,T321
[2] = biological target: dynein (cytoplasmic dynein-1, endogenous, detected by its intermediate chain DIC) (human (endogenous in HeLa)) (UniProt Q13409)
dynein (cytoplasmic dynein-1, endogenous, detected by its intermediate chain DIC) (human (endogenous in HeLa)), sequence (Q13409 whole entry, looked up, the tested form may be a part): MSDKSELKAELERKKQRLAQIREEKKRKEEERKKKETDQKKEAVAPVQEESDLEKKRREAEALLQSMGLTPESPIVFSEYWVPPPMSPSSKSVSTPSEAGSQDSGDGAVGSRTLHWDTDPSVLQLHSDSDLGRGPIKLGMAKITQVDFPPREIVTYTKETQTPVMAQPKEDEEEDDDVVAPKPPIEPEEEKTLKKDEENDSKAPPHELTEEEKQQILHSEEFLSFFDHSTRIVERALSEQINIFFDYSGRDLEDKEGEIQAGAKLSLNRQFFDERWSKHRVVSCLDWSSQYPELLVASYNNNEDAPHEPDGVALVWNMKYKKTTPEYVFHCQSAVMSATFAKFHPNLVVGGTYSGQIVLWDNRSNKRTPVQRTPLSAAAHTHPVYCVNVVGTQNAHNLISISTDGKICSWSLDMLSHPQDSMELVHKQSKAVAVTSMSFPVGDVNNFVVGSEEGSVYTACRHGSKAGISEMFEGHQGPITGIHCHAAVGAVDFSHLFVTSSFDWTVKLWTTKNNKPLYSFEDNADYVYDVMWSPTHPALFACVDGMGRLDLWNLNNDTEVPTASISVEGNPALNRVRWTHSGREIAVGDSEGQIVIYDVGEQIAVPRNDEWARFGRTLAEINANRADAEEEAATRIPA

[3] = biological target: RanBP2/NUP358 BICD2 Binding Domain (BBD), 2147-2287 (UniProt P49792); assay: GST pull-down with purified proteins; details: reference: wild type; sites S102
[4] = biological target: PLK1 PBD, 354-603 (Methods: 345-603) (UniProt P53350); assay: GST-PBD pull-down from cell extracts; details: reference: wild type; sites T319,S320,T321

GST-RanBP2 BBD phosphorylated by CDK1/cyclin B (human), sequence (P49792 2147-2287): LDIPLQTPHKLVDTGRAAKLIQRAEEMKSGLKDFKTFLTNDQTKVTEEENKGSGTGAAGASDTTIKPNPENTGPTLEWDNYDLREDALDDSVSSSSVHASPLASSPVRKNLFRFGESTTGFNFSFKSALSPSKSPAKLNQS

Work on “TwinStrep-BICD2 S102D (from UniProt Q921C5 1-820) (natural protein)” yielded a fold binding against wild-type BICD2 on phosphorylated BBD [1] of 12 fold and a fold binding against wild-type BICD2 on unmodified BBD [1] of 400 times.
In the case of “BICD2 (mouse, recombinant) (from UniProt Q921C5) T319A/S320A/T321A, exponentially growing cells”, the “binding against the reference” value (PLK1; exponentially growing cells) is reported as “lost”.
Substance “GFP-BICD2 S102D (from UniProt Q921C5 1-820) (natural protein)” has a percent of U2OS cells with clustered mitochondria, BICD2 form expressed as GFP-BICD2 S102D-MTD [2] of 61%.
“BICD2 (mouse, recombinant) (from UniProt Q921C5) S102D” gave a fold change [3] of 12.
In the case of “BICD2 (mouse, recombinant) (from UniProt Q921C5) T319A/S320A/T321A”, the “binding against the reference” value [4] is reported as “lost”.
“GFP-BICD2 S102A (from UniProt Q921C5 1-820) (natural protein)” showed a percent of U2OS cells with clustered mitochondria, BICD2 form expressed as GFP-BICD2 S102A-MTD [2] of 43%.
With “BICD2 (mouse, recombinant) (from UniProt Q921C5) T319A/S320A/T321A, mitotic cells” the “binding against the reference” value (PLK1; mitotic cells) was “lost”.
For “GFP-BICD2 wild type (from UniProt Q921C5 1-820) (natural protein)”, the percent of U2OS cells with clustered mitochondria, BICD2 form expressed as GFP-BICD2 WT-MTD [2] was 50%.
For “GFP-BICD2 [1–575] (from UniProt Q921C5 1-575) (domain or fragment)”, the percent of U2OS cells with clustered mitochondria, BICD2 form expressed as GFP-BICD2 [1–575]-MTD [2] was 85%.
